Experimental data taken from US20250257130A1 (NONA BIOSCIENCES SUZHOU, published 2025).
Where a chain is given by its changes, count along the chain named.

B1: PR007417 (antibody, V domains shown)
VH: EVQLVESGGGLVKPGGSLRLSCAASGFTFSDFYMSWIRQAPGKGLEWISYISSSGSTRYYADSVKGRFTISRDNAKNSLYLQMNSLRAEDTAIYYCARDIPSSSSDWVDLQFDYWGQGTLVTVSS
notes: bivalent form (HCAb) variant of PR005340, no light chain
B2: PR007424 (antibody, V domains shown)
VH: B1 VH with F32Y, S52D, S56R, T57P, R58L, Y59A, I100M, D109S
notes: as for B1
B3: PR303201 (antibody, human IgG1, V domains shown)
VH: EVQLLESGGGLVQPGGSLRLSCAASGFTFSGNAMSWVRQAPGKGLEWVSAISGSGDKTYYAASVKGRFTISRDNSNNTVYLQMNSLRAEDTAVYYCEKGAFRTTMDYWGQGTLVTVSS
notes: HCAb (heavy chain-only, human IgG1 Fc), no light chain
B4: PR005351 (antibody, human IgG1, V domains shown)
VH: QVQLVESGGGLVKPGGSLRLSCAASGFKLSDFQMSWIRQAPGKGLEWVAYIDTNGSTRYYAESVKGRFTLSRDNVKNSLNLQMNGLRAEDTALYYCARIPSYTSSWYEDFDHWGQGTLVTVSS
notes: as for B3

Legend:
[1] = target: T1, hu-ROR2-ECD-his (Acrobiosystems RO2-H52E5) (human, UniProt Q01974 34-403); assay: BLI, antibody on AHC sensor, ROR2-His in solution
T1 construct: extracellular domain; bought protein; also called Human ROR2 his-tagged protein; Human ROR2, His Tag
Description: In the example, binding kinetics of anti-ROR1 antibodies to soluble ROR2 protein were analyzed by using Bio-Layer Interferometry (BLI) analysis on Fortebio Octet Red384 instrument (Fortebio). […] The captured biosensors were then dipped in wells containing 2-fold serial dilutions of antigen proteins to detect association signals, followed by dissociation steps in wells containing 1× kinetic buffer. Human ROR2 his-tagged protein (Acrobiosystems, #RO2-H52E5) was diluted from 600 nM to 37.5 nM; the association phase was 180 seconds, and the dissociation phase was 180 seconds. The sensorgrams were recorded and the reference signals were subtracted before curve fitting using ForteBio Data Analysis 11.0 software. Association rates (kₒₙ) and dissociation rates (kdis) were calculated using a simple one-to-one Langmuir binding model. The equilibrium dissociation constant (KD) was calculated as the ratio of kdis/kₒₙ.

[2] = target: T2, human ROR1 on cells (HEK293T-hROR1, PANC-1, A549) (human, UniProt Q01973 30-937); assay: flow cytometry, PANC-1 cells
T2 construct: whole, on cells; one molecule for the three cell lines; also called huROR1; cell surface ROR1
Description: (§1) In brief, anti-ROR1 antibodies were serially diluted in staining buffer (PBS containing 2% FBS). Antibody solution was incubated with 1×10⁵ cells at 4° C. for 1 hour. […] After 1-hour incubation at 4° C., cells were washed twice with staining buffer and subjected to flow cytometry. PR000374 (Bench marker 1) and non-relevant IgG isotype control (Crownbio) were used as positive and negative controls, respectively.
Binding activity of the variants to PANC-1 cells were tested using the same method described in example 5.1. The results were shown in FIGS. 7-8 and Table 11 and Table 12.

[3] = target: T3, Human ROR1-ECD-his (Acro Biosystems RO1-H522y) (human, UniProt Q01973 30-406); assay: BLI in-tandem, row = 1st Ab; competitor (2nd Ab): PR007424
T3 construct: extracellular domain; bought protein; also called hROR1-ECD-his; hu-ROR1-ECD-his
Source text: (§2) To determine if anti-ROR1 antibodies bind to human ROR1 on different or approximate binding epitopes, the ForteBio Octet® RED96e platform was used to perform epitope competition experiments on the anti-ROR1 antibodies. Human ROR1 protein (Acrobiosystems, #RO1-H522y) was biotinylated and then captured onto SA biosensors (ForteBio, #18-5020) to reach loading level of 0.3-0.4 nm. The in-tandem competition assay format was applied and it contains two association steps. Firstly, the antigen-loaded biosensors bind to each antibody (a.k.a, First antibody, 1st Ab) with a saturating concentration of 200 nM for 180 seconds to reach equilibrium and then secondly bind to the competing antibodies (a.k.a, Second antibody, 2nd Ab) of 200 nM for 180 seconds. The second binding signals were recorded as the 100% signal of each antibody when the first antibodies were replaced by kinetics buffer. All the binding data were analyzed using ForteBio Data Analysis 11.0 software. The inhibition rate is calculated by the following formula: […]

[4] = target: T3, Human ROR1-ECD-his (Acro Biosystems …); assay: BLI in-tandem, row = 1st Ab; competitor (2nd Ab): PR005338
Source text: as §2

[5] = target: T3, Human ROR1-ECD-his (Acro Biosystems …); assay: BLI in-tandem, row = 1st Ab; competitor (2nd Ab): PR005340
Source text: as §2

[6] = target: T3, Human ROR1-ECD-his (Acro Biosystems …); assay: BLI in-tandem, row = 1st Ab; competitor (2nd Ab): PR007417
Source text: as §2

[7] = target: T2, human ROR1 on cells (HEK293T-hROR1, …); assay: flow cytometry on PANC-1 cells, MFI (Median-APC) [middle panel, letter not given]
[8] = target: T3, Human ROR1-ECD-his (Acro Biosystems …); assay: BLI, antibody on AHC sensor, ROR1-His 5-80 nM in solution
Description: The captured biosensors were then dipped in wells containing 2-fold serial dilutions of antigen proteins to detect association signals, followed by dissociation steps in wells containing 1× kinetic buffer. Human ROR1 hits-tagged protein (Acrobiosystems, #RO1-H522y) was diluted from 80 nM to 5 nM; the association phase was 180 seconds, and the dissociation phase was 600 seconds. The sensorgrams were recorded and the reference signals were subtracted before curve fitting using ForteBio Data Analysis 11.0 software. Association rates (kₒₙ) and dissociation rates (kdis) were calculated using a simple one-to-one Langmuir binding model. The equilibrium dissociation constant (KD) was calculated as the ratio of kdis/kₒₙ.

[9] = target: T3, Human ROR1-ECD-his (Acro Biosystems …); assay: BLI in-tandem, row = 1st Ab; competitor (2nd Ab): PR000374
Source text: as §2

[10] = target: T2, human ROR1 on cells (HEK293T-hROR1, …); assay: flow cytometry on PANC-1 cells, MFI (Median-APC) [bottom panel, letter not given]
[11] = target: T2, human ROR1 on cells (HEK293T-hROR1, …); assay: flow cytometry, A549 cells
Description: as §1

[12] = target: T2, human ROR1 on cells (HEK293T-hROR1, …); assay: flow cytometry, PANC-1 cells; remark: listed apart in the source
Description: as §1

[13] = target: T3, Human ROR1-ECD-his (Acro Biosystems …); assay: ELISA, plate coated with hu-ROR1-his at 1 µg/mL
Description: (§3) Binding of recombinant anti-ROR1 antibodies to hu-ROR1-ECD-his was tested by ELISA. In brief, 1 μg/mL hu-ROR1-ECD-his was added to the 96-well plate, 100 μL each well, incubated at 4° C. overnight, washing the plates with 1×PBST 3 times, 300 ul/well, blocking the plates with 2% BSA in 1×PBST, 200 ul/well at 37° C. for 1 hour, anti-ROR1 antibodies were serially diluted in staining buffer (PBS containing 2% BSA). Antibody solution was added to the plate and incubates at 37° C. for 1 hour, washing the plates with 1×PBST 3 times, 300 ul/well, adding secondary antibody 100 ul/well and incubate at 37° C. for 1 hour, washing the plates with 1×PBST 3 times, 300 ul/well and then add 100 ul/well TMB for about 5 min, stop the reaction by adding 100 ul/well 2M H₂SO₄, read the plates with Molecular device spectra max plus384 at 450 nm and 570 nm.

[14] = target: T1, hu-ROR2-ECD-his (Acrobiosystems …); assay: ELISA, plate coated with hu-ROR2-his at 1 µg/mL
Description: as §3, with “1” for “Binding of recombinant anti-ROR1 antibodies to hu-ROR1-ECD-his was tested by ELISA. In brief, 1”, “hu-ROR2-ECD-his (Acrobiocystems, RO2-H52E5)” for “hu-ROR1-ECD-his”

[15] = target: T3, Human ROR1-ECD-his (Acro Biosystems …); assay: ELISA, coated hu-ROR1-ECD-his
Description: as §3

[16] = target: T3, Human ROR1-ECD-his (Acro Biosystems …); assay: BLI, ROR1-His on HIS1K sensor, antibody in solution
Description: In the example, binding kinetics of anti-ROR1 antibodies to soluble ROR1 protein were analyzed by using Bio-Layer Interferometry (BLI) analysis on Fortebio Octet Red384 instrument (Fortebio).
In BLI analysis, recombinant anti-ROR1 antibodies was serially diluted with 10× kinetics buffer (Fortebio). Human ROR1-His proteins were diluted to 20 nM. Then the diluted antibodies, ROR1 proteins and regeneration buffer (10 mM glycine HCl pH 1.5) were added to 96-well plates (Greiner). Rate constants for association and dissociation were measured using HIS1K sensor (Fortebio). The sensor surface was regenerated after each binding experiment with regeneration buffer. The traces were processed using Octet Data Analysis Software (version 11.0, Pall ForteBio, CA, USA).

[17] = target: T4, cynomolgus ROR1 on CHO-K1-cynoROR1 cells (cynomolgus monkey, UniProt A0A2K5WTX7 30-937); assay: flow cytometry, CHO-K1-cynoROR1 cells
T4 construct: whole, on cells
Description: as §1

[18] = target: T2, human ROR1 on cells (HEK293T-hROR1, …); assay: flow cytometry, HEK293T-hROR1 cells
Description: as §1

[19] = target: T2, human ROR1 on cells (HEK293T-hROR1, …); assay: flow cytometry on HEK293T-hROR1 cells, MFI (Mean)
Description: (§4) Binding of recombinant anti-ROR1 antibodies to human or cynomolgus ROR1-overexpressing cells was tested by flow cytometry. In this example, ROR1-expressing cell lines are HEK293T cell lines that had been transfected to express human ROR1 on the surface (HEK293T-hu ROR1, KYINNO BIOTECHNOLOGY CO., LTD, Catalog #KC-1018), CHO-K1 cell lines that had been transfected to express cynomolgus ROR1 (CHOK1-cyno ROR1), PANC-1 (ATCC, catalog: CRL-1469) or A549 cell lines (Shanghai Institute of Biochemistry and Cell Biology, Chinese Academy of Sciences).
as §1

[20] = target: T4, cynomolgus ROR1 on CHO-K1-cynoROR1 cells; assay: flow cytometry on CHOK1-cynoROR1 cells, MFI (Mean) [bottom panel, letter not given]
Description: as §4, §1

[21] = target: T2, human ROR1 on cells (HEK293T-hROR1, …); assay: flow cytometry on PANC-1 cells, MFI (FITC-A Median)
Description: as §4, §1

[22] = target: T4, cynomolgus ROR1 on CHO-K1-cynoROR1 cells; assay: flow cytometry, CHO-K1-cynoROR1 cells; remark: listed apart in the source
Description: as §4, §1

T2 sequence (Q01973 30-937): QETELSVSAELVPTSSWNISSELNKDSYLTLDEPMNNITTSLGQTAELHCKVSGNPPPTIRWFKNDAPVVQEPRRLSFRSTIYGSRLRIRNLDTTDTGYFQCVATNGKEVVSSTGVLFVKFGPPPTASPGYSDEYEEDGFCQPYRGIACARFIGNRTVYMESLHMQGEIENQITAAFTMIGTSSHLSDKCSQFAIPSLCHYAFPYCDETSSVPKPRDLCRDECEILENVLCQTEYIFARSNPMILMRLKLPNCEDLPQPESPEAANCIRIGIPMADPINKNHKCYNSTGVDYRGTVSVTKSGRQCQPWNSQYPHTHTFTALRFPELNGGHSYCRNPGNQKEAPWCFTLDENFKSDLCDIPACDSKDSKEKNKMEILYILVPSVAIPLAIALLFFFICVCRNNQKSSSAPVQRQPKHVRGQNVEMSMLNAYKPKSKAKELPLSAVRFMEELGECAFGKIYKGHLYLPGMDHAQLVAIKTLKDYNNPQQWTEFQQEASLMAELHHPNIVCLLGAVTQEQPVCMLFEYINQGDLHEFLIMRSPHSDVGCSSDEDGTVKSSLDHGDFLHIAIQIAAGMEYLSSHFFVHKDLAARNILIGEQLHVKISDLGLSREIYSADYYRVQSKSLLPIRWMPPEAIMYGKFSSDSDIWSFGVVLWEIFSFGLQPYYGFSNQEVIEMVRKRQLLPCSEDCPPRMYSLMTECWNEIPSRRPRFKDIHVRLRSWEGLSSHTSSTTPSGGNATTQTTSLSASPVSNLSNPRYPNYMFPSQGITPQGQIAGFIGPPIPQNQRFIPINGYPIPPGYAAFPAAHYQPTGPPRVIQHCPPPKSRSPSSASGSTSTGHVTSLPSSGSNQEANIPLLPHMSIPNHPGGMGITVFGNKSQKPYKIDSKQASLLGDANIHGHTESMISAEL
T1 sequence (Q01974 34-403): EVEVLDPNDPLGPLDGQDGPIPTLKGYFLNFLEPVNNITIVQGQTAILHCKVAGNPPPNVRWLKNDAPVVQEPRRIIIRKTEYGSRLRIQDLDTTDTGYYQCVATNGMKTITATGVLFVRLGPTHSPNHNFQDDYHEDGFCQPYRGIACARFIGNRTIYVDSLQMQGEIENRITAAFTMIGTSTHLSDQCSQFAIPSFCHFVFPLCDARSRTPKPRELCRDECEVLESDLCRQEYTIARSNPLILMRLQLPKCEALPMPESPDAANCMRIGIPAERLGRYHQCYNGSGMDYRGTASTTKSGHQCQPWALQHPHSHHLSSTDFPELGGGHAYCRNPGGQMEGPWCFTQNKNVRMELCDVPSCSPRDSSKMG
T3 sequence (Q01973 30-406): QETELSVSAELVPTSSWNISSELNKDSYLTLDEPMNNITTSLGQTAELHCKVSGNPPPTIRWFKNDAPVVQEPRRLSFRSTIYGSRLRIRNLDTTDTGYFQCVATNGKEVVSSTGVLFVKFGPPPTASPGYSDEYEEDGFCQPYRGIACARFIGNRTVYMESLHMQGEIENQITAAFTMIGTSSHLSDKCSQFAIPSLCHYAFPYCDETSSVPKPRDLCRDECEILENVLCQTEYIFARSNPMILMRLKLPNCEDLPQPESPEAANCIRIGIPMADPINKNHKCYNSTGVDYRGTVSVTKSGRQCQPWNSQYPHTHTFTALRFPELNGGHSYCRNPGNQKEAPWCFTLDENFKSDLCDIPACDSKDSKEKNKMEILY

Binder	binding result [1]	TOP [2]	Inhibition (%) [3]	Inhibition (%) [4]	Inhibition (%) [5]	Inhibition (%) [6]	Kd [8]	koff [8]	kon [8]	Inhibition (%) [9]	other results
B1	no binding (tested: 37.5-600 nM)	83800	111%	114%	116%	113%	0.18 nM	4.86e-05 s⁻¹	271000 M⁻¹ s⁻¹	10.2%	EC50 (read off the curve) [7]: ~0.8 nM
B2	no binding (tested: 37.5-600 nM)	70800	107%	108%	111%	111%	1.01 nM	0.000284 s⁻¹	281000 M⁻¹ s⁻¹	-0.73%	EC50 (read off the curve) [10]: ~0.6 nM
B3											EC50 [11]: 0.08 µg/mL; MAX(MFI) [11]: 1.23e+06 MFI; MAX(MFI) [12]: 935000 MFI; EC50 (read off the curve) [13]: ~0.004 µg/mL; binding result [14]: no binding (tested: about 15 µg/ml); EC50 [15]: 0.004 µg/mL; Kd [16]: 4.89 nM; koff [16]: 0.00626 s⁻¹; kon [16]: 1.28e+06 M⁻¹ s⁻¹; EC50 [17]: 0.057 µg/mL; MAX(MFI) [17]: 1.07e+07 MFI; EC50 [18]: 0.066 µg/mL; MAX(MFI) [18]: 1.55e+07 MFI; EC50 (read off the curve) [19]: ~0.06 µg/mL; EC50 (read off the curve) [20]: ~0.06 µg/mL
B4											EC50 (read off the curve) [21]: ~20 nM; Max [12]: 10900; Max [22]: 27500
